Data from article PMC6483365.

Tests used:
[1] = test system: hemagglutinin on whole virus (Influenza A virus A/England/42/1972 (H3N2)); assay: ELAA; conditions: […], pH 7.4), 25 C, […], room temperature, 1 h
[2] = test system: hemagglutinin on whole virus (Influenza A virus A/tern/South Africa/1/1961 (H5N3)); assay: ELAA; conditions: […], pH 7.4), 25 C, […], room temperature, 1 h
[3] = test system: hemagglutinin on whole virus (Influenza A virus A/duck/Primorie/3691/2002 (H12N2)); assay: ELAA; conditions: […], pH 7.4), 25 C, […], room temperature, 1 h
[4] = test system: hemagglutinin on whole virus (Influenza A virus A/Primorie/3631/2002 (H9N2)); assay: ELAA; conditions: […], pH 7.4), 25 C, […], room temperature, 1 h
[5] = target: hemagglutinin on whole virus (Influenza A virus A/Vietnam/1203/2004-PR8/CDC-R (H5N1)) (UniProt Q6DQ33); assay: ELAA; conditions: […], pH 7.4), 25 C, […], room temperature, 1 h
[6] = target: hemagglutinin on whole virus (Influenza A virus A/New Caledonia/20/1999 (H1N1)) (UniProt Q6WG00); assay: ELAA; conditions: […], pH 7.4), 25 C, […], room temperature, 1 h
[7] = test system: hemagglutinin on whole virus (Influenza A virus A/mallard/Sweden/91/2002 (H7N9)); assay: ELAA; conditions: […], pH 7.4), 25 C, […], room temperature, 1 h
[8] = target: hemagglutinin on whole virus (Influenza A virus A/Aichi/2/1968 (H3N2)) (UniProt P03437); assay: ELAA
[9] = target: hemagglutinin on whole virus (Influenza A virus A/Puerto-Rico/8/1934 (H1N1)) (UniProt P03452); assay: ELAA
hemagglutinin on whole virus (Influenza A virus A/Puerto-Rico/8/1934 (H1N1)), sequence (P03452 whole entry): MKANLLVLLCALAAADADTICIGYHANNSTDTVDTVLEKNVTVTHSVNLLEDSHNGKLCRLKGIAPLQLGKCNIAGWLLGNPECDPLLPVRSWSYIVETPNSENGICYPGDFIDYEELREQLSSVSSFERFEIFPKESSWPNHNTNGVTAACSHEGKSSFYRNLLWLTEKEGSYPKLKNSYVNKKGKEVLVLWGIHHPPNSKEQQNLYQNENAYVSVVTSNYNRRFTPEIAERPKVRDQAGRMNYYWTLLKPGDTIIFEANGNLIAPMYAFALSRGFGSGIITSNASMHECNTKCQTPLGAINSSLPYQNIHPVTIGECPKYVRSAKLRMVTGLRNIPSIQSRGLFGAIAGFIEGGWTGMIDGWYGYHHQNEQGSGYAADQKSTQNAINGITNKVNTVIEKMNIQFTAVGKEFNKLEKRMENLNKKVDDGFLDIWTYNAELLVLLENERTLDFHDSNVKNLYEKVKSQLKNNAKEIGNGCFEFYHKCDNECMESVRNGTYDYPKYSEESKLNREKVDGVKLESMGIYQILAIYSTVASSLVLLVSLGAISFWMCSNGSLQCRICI

[10] = test system: recombinant hemagglutinin H7 (Influenza A virus (H7 subtype, strain not stated)); assay: SPR; conditions: […], pH 7.4), 25 C, room temperature, 1 h
[11] = test system: recombinant hemagglutinin H3 (Influenza A virus (H3 subtype, strain not stated)); assay: SPR; conditions: […], pH 7.4), 25 C, room temperature, 1 h
[12] = test system: recombinant hemagglutinin H5 (Influenza A virus (H5 subtype, strain not stated)); assay: SPR; conditions: […], pH 7.4), 25 C, room temperature, 1 h
[13] = test system: recombinant hemagglutinin H9 (Influenza A virus (H9 subtype, strain not stated)); assay: SPR; conditions: […], pH 7.4), 25 C, room temperature, 1 h
[14] = test system: recombinant hemagglutinin H1 (Influenza A virus (H1 subtype, strain not stated)); assay: SPR; conditions: […], pH 7.4), 25 C, room temperature, 1 h
[15] = test system: hemagglutinin on whole virus (Influenza A virus A/England/42/1972 (H3N2)); assay: SERS sandwich; conditions: […], pH 7.4), 25 C, […], room temperature, 1 h
[16] = test system: hemagglutinin on whole virus (Influenza A virus A/tern/South Africa/1/1961 (H5N3)); assay: SERS sandwich; conditions: […], pH 7.4), 25 C, […], room temperature, 1 h
[17] = test system: hemagglutinin on whole virus (Influenza A virus A/Primorie/3/1982 (H9N2)); assay: SERS sandwich; conditions: […], pH 7.4), 25 C, […], room temperature, 1 h
[18] = test system: hemagglutinin on whole virus (Influenza A virus A/duck/Primorie/3691/2002 (H12N2)); assay: SERS sandwich; conditions: […], pH 7.4), 25 C, […], room temperature, 1 h
[19] = test system: hemagglutinin on whole virus (Influenza A virus A/duck/Moscow/4182/2010 (H5N3)); assay: SERS sandwich; conditions: […], pH 7.4), 25 C, […], room temperature, 1 h
[20] = test system: hemagglutinin on whole virus (Influenza A virus A/Mississippi/1/1985 (H3N2)); assay: SERS sandwich; conditions: […], pH 7.4), 25 C, […], room temperature, 1 h
[21] = target: hemagglutinin on whole virus (Influenza A virus A/Vietnam/1203/2004-PR8/CDC-R (H5N1)) (UniProt Q6DQ33); assay: SERS sandwich; conditions: […], pH 7.4), 25 C, […], room temperature, 1 h
[22] = test system: hemagglutinin on whole virus (Influenza A virus A/Buryatia/652/1988 (H3N8)); assay: SERS sandwich; conditions: […], pH 7.4), 25 C, […], room temperature, 1 h
[23] = target: hemagglutinin on whole virus (Influenza A virus A/New Caledonia/20/1999 (H1N1)) (UniProt Q6WG00); assay: SERS sandwich; conditions: […], pH 7.4), 25 C, […], room temperature, 1 h
[24] = test system: hemagglutinin on whole virus (Influenza A virus A/Buryatia/2408/2001 (H4N6)); assay: SERS sandwich; conditions: […], pH 7.4), 25 C, […], room temperature, 1 h
[25] = target: hemagglutinin on whole virus (Influenza A virus A/Aichi/2/1968 (H3N2)) (UniProt P03437); assay: SERS sandwich

Sequence: TTGGGGTTATTTTGGGAGGGCGGGGGTT [RHA0385-Biotin]
- Kd [1]: 40 nM
- Kd [2]: 200 nM
- Kd [3]: > 200 nM
- Kd [4]: 16 nM
- Kd [5]: 34 nM
- Kd [6]: 42 nM
- Kd [7]: 13 nM
- Kd [8]: 17 nM
- Kd [9]: 13 nM

Sequence: TTGGGGTTATTTTGGGAGGGCGGGGGTT [RHA0385]
- Kd [10]: 12 nM
- Kd [11]: 12 nM
- Kd [12]: 13 nM
- Kd [13]: 14 nM
- Kd [14]: 7 nM

Sequence: TTGGGGTTATTTTGGGAGGGCGGGGGTT [RHA0385-Cy3]
- binding signal (relative SERS signal) [15]: 3
- binding signal (relative SERS signal) [16]: 6.5
- binding signal (relative SERS signal) [17]: 2.4
- binding signal (relative SERS signal) [18]: 5
- binding signal (relative SERS signal) [19]: 2.9
- binding signal (relative SERS signal) [20]: 4.3
- binding signal (relative SERS signal) [21]: 4.8
- binding signal (relative SERS signal) [22]: 2.4
- binding signal (relative SERS signal) [23]: 1.7
- binding signal (relative SERS signal) [24]: 6.9
- binding signal (relative SERS signal) [25]: 4.1
